Measurements: IntAct's records for PubMed 34400613

B1: Ras GTPase-activating protein-binding protein 2 (Homo sapiens), Q9UN86 (parent)
chain: MVMEKPSPLLVGREFVRQYYTLLNKAPEYLHRFYGRNSSYVHGGVDASGKPQEAVYGQNDIHHKVLSLNFSECHTKIRHVDAHATLSDGVVVQVMGLLSNSGQPERKFMQTFVLAPEGSVPNKFYVHNDMFRYEDEVFGDSEPELDEESEDEVEEEQEERQPSPEPVQENANSGYYEAHPVTNGIEEPLEESSHEPEPEPESETKTEELKPQVEEKNLEELEEKSTTPPPAEPVSLPQEPPKAFSWASVTSKNLPPSGTVSSSGIPPHVKAPVSQPRVEAKPEVQSQPPRVREQRPRERPGFPPRGPRPGRGDMEQNDSDNRRIIRYPDSHQLFVGNLPHDIDENELKEFFMSFGNVVELRINTKGVGGKLPNFGFVVFDDSEPVQRILIAKPIMFRGEVRLNVEEKKTRAARERETRGGGDDRRDIRRNDRGPGGPRGIVGGGMMRDRDGRGPPPRGGMAQKLGSGRGTGQMEGRFTGQRR

Variants of: B1
Details: with ncap_sars2 N

| Variant | effect of a mutation on the interaction |
| --- | --- |
| F15A | decreasing interaction strength |
| F15A;F33A | decreasing interaction strength |
| F15A;F33A;F124A | disrupting interaction strength |
